Source: JP2006342173A (dated 2006)

These binders were tested against T1, ヒトCD40 (human CD40 expressed on cells) (human, UniProt P25942 21-277) (assay: screening by ELISA (human CD40 mouse FC) and FACS (Ramos cells)).
T1 construct: whole, on cells; also called Ramos細胞上のCD40; DC上のCD40
T1 sequence (P25942 21-277): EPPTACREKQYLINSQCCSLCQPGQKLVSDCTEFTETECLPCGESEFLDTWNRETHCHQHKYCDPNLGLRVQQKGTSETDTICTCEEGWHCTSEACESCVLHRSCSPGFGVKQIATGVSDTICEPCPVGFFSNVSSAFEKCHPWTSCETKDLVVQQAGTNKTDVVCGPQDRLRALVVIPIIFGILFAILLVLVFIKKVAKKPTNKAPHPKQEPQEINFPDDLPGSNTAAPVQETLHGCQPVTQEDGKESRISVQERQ

Row | Binder | binding result
1 | KM643-4-11抗体 (antibody, V domains shown, Human agonistic anti-CD40 antibody from hybridoma; Signal peptides predicted by Signal P) VH: QVQLQQSGPGLVKPSQTLSFTCAISGDSVSSNSAAWNWIRQSPSRGLEWLGRTYYRSKWYKDYAVSVKSRITINPDTSKNQFSLQLNSVTPEDTAVYYCARGYYYGSGSYPYYYQMDVWGQGTTVTVSS VL: EIVLTQSPATLSLSPGESATLSCRASQSVSSYLAWYQQKPGQAPRLLIYDASNRATGIPARFSGSGSGTDFTLTISSLEPEDFAVYYCQQRSNTFGGGTKVEIK | binds
2 | 2105抗体 (antibody, V domains shown, Human agonistic anti-CD40 antibody, FERM BP-8024) VH: EVQLVESGGGLVQPGRSLRLSCAASGFTFDDYAMHWVRQAPGKGLEWVSGISWNSGSLVHADSVKGRFTISRDNAKNSLYLQMNSLRAEDTALYYCARDRLFRGVRYYGMDVWGQGTTVTVSS VL: EIVLTQSPATLSLSPGERATLSCRASQSVSSYLAWYQQKPGQAPRLLIYDASNRATGIPARFSGSGSGTDFTLTISSLEPEDFAVYYCQQRSHWLTFGGGTKVEIK | binds
3 | 110抗体 (antibody, V domains shown, Human agonistic anti-CD40 antibody from hybridoma; Signal peptides predicted by Signal P) VH: QVQLVESGGGVVQPGRSLRLSCAASGFTFSSYGMHWVRQAPGKGLEWVAVIWYDGSIKYYADSVKGRFTISRDNSKNTLYLQMNSLRAEDTAVYYCAREGYNILTGYFGYWGQGTLVTVSS VL: VIWMTQSPSLLSASTGDRVTISCRMSQGISSDLAWYQQKPGKAPELLISAASTLQSGVPSRFSGSGSGTDFTLTISCLQSEDFATYYCQQYYSFPWTFGQGTKVEIK | binds
4 | 115抗体 (antibody, V domains shown, Human agonistic anti-CD40 antibody from hybridoma; Signal peptides predicted by Signal P) VH: QVQLVESGGGVVQPGRSLRLSCAASGFTFSSYGMHWVRQAPGKGLEWVAVIWNDGSIKYYADSVKGRFTISRDNSKNTLYLQMNSLRAEDTAVYYCAREGYNILTGYFGYWGQGTLVTVSS VL: VIWMTQSPSLLSASTGDRVTISCRMSQGISSDLAWYQQKPGKAPELLISAASTLQSGVPSRFSGSGSGTDFTLTISCLQSEDFATYYCQQYYSFPWTFGQGTKVEIK | binds
5 | F2-103抗体 (antibody, V domains shown, Human agonistic anti-CD40 antibody from hybridoma; plasmids ATCC PTA-3302 and PTA-3303; Signal peptides predicted by Signal P) VH: EVQLVESGGGLVQPGGSLRLSCAVSGFTFSTYWMHWVRQAPGKGLVWVSRINSDGSSTTYADSVKGRFTISRDNAKNTLYLQMNSLRAEDTAVYYCARDRVLWIGELSYYGMDVWGQGTTVTVSS VL: DIQMTQSPSTLSASVGDRVTITCRASQSISNWLAWYQQKPGKAPKLLLYKASGLESGVPSRFSGSGSGTEFTLTINSLQPDDFATYYCQQSNSYSWTFGHGTKVEIK | binds
6 | F5-77抗体 (antibody, V domains shown, Human agonistic anti-CD40 antibody from hybridoma; plasmids ATCC PTA-3304 and PTA-3305; Signal peptides predicted by Signal P) VH: not shown VL: DIQMTQSPSSVSGSVGDRVTITCRASQGISSWLAWYQQKPGKAPKLLIYAGSSLQSGVPSRFSGSGFGTDFTLTISSLQPEDFATYYCQQASSFPRTFGQGTKVEIK | binds
7 | KM281-1-10抗体 (antibody, V domains shown, Human antagonistic anti-CD40 antibody, FERM BP-7579; Signal peptides predicted by Signal P) VH: QVQLQESGPGLVKPSETLSLTCTVSGGSISGYYWSWIRQPPGKGLEWIGYIYYSGSTNYNPSLKSRVTISVDTSKNQFSLKLNSVTAADTAVYYCARAPLHGDYKWFHPWGQGTLVTVSS VL: not shown | binds
8 | 4D11抗体 (antibody, V domains shown, Human antagonistic anti-CD40 antibody, FERM BP-7758; Signal peptides predicted by Signal P) VH: QLQLQESGPGLLKPSETLSLTCTVSGGSISSPGYYGGWIRQPPGKGLEWIGSIYKSGSTYHNPSLKSRVTISVDTSKNQFSLKLSSVTAADTAVYYCTRPVVRYFGWFDPWGQGTLVTVSS VL: AIQLTQSPSSLSASVGDRVTITCRASQGISSALAWYQQKPGKAPKLLIYDASNLESGVPSRFSGSGSGTDFTLTISSLQPEDFATYYCQQFNSYPTFGQGTKVEIK | binds
